For one assay, the target named is T1, 2C-121-270aa小肽段 #3 (CVA10病毒 (coxsackievirus A10)).
T1 peptide: PGTGKSLATGIIARA
In words: ELISA on coated synthetic peptides.

For another assay, the target named is T2, 2C-121-270aa小肽段 #4 (CVA10病毒 (coxsackievirus A10)).
T2 peptide: SLATGIIARAIADKY
Put plainly: ELISA on coated synthetic peptides. In general terms: ELISA stands for enzyme-linked immunosorbent assay.

Assay [1] has as its target T3, CVB3病毒2C蛋白 (CVB3, UniProt P03313 1101-1429).
T3 construct: domain: 2C蛋白

The target in another assay is T4, 2C-121-270aa肽段 (CVA10病毒 (coxsackievirus A10)).
T4 construct: Expressed in 293T cells from pcDNA6.0 and detected with a Flag antibody, so it carries a Flag tag
In words: western blot on truncated 2C fragments expressed in 293T cells. For orientation: Immunoblotting shows a protein as a band on a membrane.

The target in a further assay is T5, CVA10病毒2C蛋白 (CVA10病毒 (coxsackievirus A10), UniProt Q65900 1112-1440).
T5 construct: In ELISA it was purified 2C protein from prokaryotic expression, coated on the plate; In western blot, immunofluorescence and flow cytometry it was the 2C protein made in CVA10-infected RD cells (intracellular); also called CVA10-2C
Put plainly: western blot on virus-infected RD cells.

In assay [2] the target is T3, CVB3病毒2C蛋白. The source holds these as a separate data set.

Where two headings read alike, the source gives them in different places.

B1: M3-8单克隆抗体 (M3-8 mAb) (antibody, V domains shown)
VH: QVQLQQSGAELVRPGASVKLSCKALGYTFADNEMHWVKQTPVHGLEWIGGIHPGSGGTAYNQKFKGKATLTADKSSSTAYMELSSLTSEDSAVYYCTRDYYWYDEGFDYWGQGTTLTVSS
VL: DIVMTQTPLSLPVSLGDQASISCRSSQSLVHSNGNTYLHWYLQKPGQSPELLIYKVSNRFSGVPDRFSGSGSGTDFTLKISRVEAEDLGVYFCSQSTHIPLTFGAGTKLELK
notes: also called M3-8细胞上清; 纯化的单克隆抗体(M3-8 mAb)
With B1, the binding result in the assay with 2C-121-270aa小肽段 #3 is listed as “binds”; in the assay with 2C-121-270aa小肽段 #4 it was “binds”; with CVB3病毒2C蛋白 [1] it was “no binding”; with 2C-121-270aa肽段 it was “binds”.

B2: M3-8重组抗体 (antibody, V domains shown)
VH: QVQLQQSGAELVRPGASVKLSCKALGYTFADNEMHWVKQTPVHGLEWIGGIHPGSGGTAYNQKFKGKATLTADKSSSTAYMELSSLTSEDSAVYYCTRDYYWYDEGFDYWGQGTTLTVSS
VL: DIVMTQTPLSLPVSLGDQASISCRSSQSLVHSNGNTYLHWYLQKPGQSPELLIYKVSNRFSGVPDRFSGSGSGTDFTLKISRVEAEDLGVYFCSQSTHIPLTFGAGTKLELK
notes: also called M3-8 mAb重组抗体
In the case of B2, the binding result is “binds” with CVA10病毒2C蛋白 and “no binding” with CVB3病毒2C蛋白 [2].

For the origin of these results see patent CN113150131A (SHANGHAI PUBLIC HEALTH CLINICAL CT, dated 2021).
